Measured values reported in article PMC11736000, “Structural and functional analysis of a bile salt hydrolase from the bison microbiome” (The Journal of Biological Chemistry, 2024).

Tests used:
Assay in all cases: steady-state kinetics (KM), o-phthaladehyde assay; HPLC/MS
Assay type in all cases: biochemical, Arthrobacter citreus
[1] = substrate: C[C@H](CCC(=O)NCC(=O)O)[C@H]1CC[C@H]2[C@@H]3CC[C@@H]4C[C@H](O)CC[C@]4(C)[C@H]3C[C@H](O)[C@]12C
[2] = substrate: C[C@H](CCC(=O)NCC(=O)O)[C@H]1CC[C@H]2[C@@H]3[C@H](O)C[C@@H]4C[C@H](O)CC[C@]4(C)[C@H]3C[C@H](O)[C@]12C
[3] = substrate: C[C@H](CCC(=O)NCCS(=O)(=O)O)[C@H]1CC[C@H]2[C@@H]3CC[C@@H]4C[C@H](O)CC[C@]4(C)[C@H]3C[C@H](O)[C@]12C

B1: bile salt hydrolase from Arthrobacter citreus EINP1 (BSHAc) (Arthrobacter citreus) (protein)
chain: CTGIRYSDGSGNLYLARNLDWTSDFGERVVVTPTGYTTKSPFGAVPAIRHAVIGMGIVQEDTPLYFDCGNDAGLAVAGLNFPGYAQYATEAVDGATNVAAFEFPLWVASQFASVDEVEAALADVVIVDRPINDKYPSSLLHWIIGDSKRAIVVEYTSDGLHVFDDDVDVLANQPGFGWHHENLRNYLNASPDFPEKIVLNRADLVPFGSGSLMRGIPGDYYSPSRFVRAAYVHAHYPGKSTEEENVSRAFHTLQQVAMVDGSAAMGSGEFEKTTYTGLFSSRTMTYYWNTYEDPAVRSVAMADHAADGTELVVV
notes: C-terminally hexahistidine-tagged recombinant BSHAc; NCBI WP_342023006.1
**Q.** Which Km [1] does the source give for B1 here?
**A.** Its Km is 380 µM.

**Q.** And the kcat [1]?
**A.** Its kcat is 1630 ± 40 s⁻¹.

**Q.** And the kcat/Km [1]?
**A.** Its kcat/Km is 4.3e+06 ± 400000 M⁻¹ s⁻¹.

**Q.** What about the Km [2] of the same protein?
**A.** Its Km is 1700 µM.

**Q.** What about the kcat [2] of the same protein?
**A.** Its kcat is 1500 ± 50 s⁻¹.

**Q.** And the kcat/Km [2]?
**A.** The kcat/Km was 880000 ± 10000 M⁻¹ s⁻¹.

**Q.** What about the Km [3] of the same protein?
**A.** The Km was 740 µM.

**Q.** And the kcat [3]?
**A.** The kcat was 342 ± 6 s⁻¹.

**Q.** And the kcat/Km [3]?
**A.** Its kcat/Km is 460000 ± 50000 M⁻¹ s⁻¹.
